Experimental data: patent US20200172896, “EVOLUTION OF BIOACTIVE SEQUENCE-DEFINED SYNTHETIC POLYMERS USING DNA-TEMPLATED POLYMERIZATION” (President and Fellows of Harvard College, published 2020)

Key:
[1] = target: T1, PCSK9 (Homo sapiens, UniProt Q8NBP7;Q8NBP7 Q8NBP7:31-152,Q8NBP7:153-692); test: SPR; 0.9x HBS-EP, 25 C, immobilized HFNAP; conditions: tags: ACROBiosystems PC9-H5223; label: 3' iSp18-dual biotin
Method: (§1) All SPR assays were performed at 25° C. on a Biacore X100 or Biacore T200 (GE Healthcare Life Sciences). Binding kinetics between enzymatically synthesized biotinylated HFNAPs and unlabeled recombinant proteins were measured using single-cycle kinetics with the Biotin CAPture kit (GE Life Sciences) using 0.9×HBS-EP buffer (GE Life Sciences) at a flow rate of 30 μL/min. The injected PCSK9 concentration ranged from 10 to 300 nM for PCSK9-A5 and its variants, or from 2 to 60 nM for PCSK9-Evo5 and its variants. The injected IL-6 concentration ranged from 10 to 300 nM.
(§2) All SPR assays were performed at 25° C. on a Biacore X100 or Biacore T200 (GE Healthcare Life Sciences). […] HBS-EP buffer (GE Life Sciences, BR100188), diluted by MilliQ water to 0.9×, was used as the bulk running buffer. Each experiment consisted of three start-up cycles followed by multiple data collection and blank cycles. […] Afterwards, four ascending concentrations of PCSK9 protein [10, 30, 100, 300 nM protein supplemented with 1 mg/ml salmon sperm DNA (Invitrogen, 15632-011) as nonspecific binding reducer for PCSK9-A5 and its variants; 2, 6, 20, 60 nM protein without salmon sperm DNA for PCSK9-Evo5 and its variants] in 0.9×HBS-EP were injected onto both flow cells in series at 30 μL/min for 150 seconds each, followed by 240 seconds of dissociation. […]

[2] = target: PCSK9 mature, lacking prodomain (Homo sapiens, UniProt Q8NBP7 Q8NBP7:153-692); test: SPR; no apparent binding, 2-60 nM protein; conditions: tags: ACROBiosystems PC9-H5226; label: 3' iSp18-dual biotin
PCSK9 mature, lacking prodomain, sequence (Q8NBP7 153-692, one chain of several): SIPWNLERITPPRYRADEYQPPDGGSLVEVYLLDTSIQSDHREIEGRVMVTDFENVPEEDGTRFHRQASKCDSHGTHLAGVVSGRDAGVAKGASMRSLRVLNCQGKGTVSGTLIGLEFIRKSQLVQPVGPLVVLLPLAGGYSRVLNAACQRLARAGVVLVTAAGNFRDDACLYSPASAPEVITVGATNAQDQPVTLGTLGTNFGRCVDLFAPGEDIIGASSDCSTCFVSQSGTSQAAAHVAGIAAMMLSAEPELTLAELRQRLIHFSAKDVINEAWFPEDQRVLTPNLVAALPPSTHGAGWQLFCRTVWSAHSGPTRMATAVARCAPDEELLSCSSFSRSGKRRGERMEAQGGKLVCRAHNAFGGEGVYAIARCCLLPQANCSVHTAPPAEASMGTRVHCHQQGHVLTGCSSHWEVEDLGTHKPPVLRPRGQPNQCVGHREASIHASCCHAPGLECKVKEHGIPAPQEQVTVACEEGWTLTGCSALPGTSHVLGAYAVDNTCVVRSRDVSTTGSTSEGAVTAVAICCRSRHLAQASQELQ
Method: All SPR assays were performed at 25° C. on a Biacore X100 or Biacore T200 (GE Healthcare Life Sciences). […] HBS-EP buffer (GE Life Sciences, BR100188), diluted by MilliQ water to 0.9×, was used as the bulk running buffer. Each experiment consisted of three start-up cycles followed by multiple data collection and blank cycles. […] Afterwards, four ascending concentrations of PCSK9 protein [10, 30, 100, 300 nM protein supplemented with 1 mg/ml salmon sperm DNA (Invitrogen, 15632-011) as nonspecific binding reducer for PCSK9-A5 and its variants; 2, 6, 20, 60 nM protein without salmon sperm DNA for PCSK9-Evo5 and its variants] in 0.9×HBS-EP were injected onto both flow cells in series at 30 μL/min for 150 seconds each, followed by 240 seconds of dissociation. Both flow cells were then regenerated with a 3:1 mixture of 8 M guanidinium chloride and 1 M NaOH following manufacturer's instructions. Blank cycles were run similarly except that 0.9×HBS-EP (containing 1 mg/ml salmon sperm DNA when PCSK9-A5 and its variants were assayed) without PCSK9 protein was injected.

[3] = target: T1, PCSK9; test: SPR; 0.9x HBS-EP, 25 C; conditions: tags: ACROBiosystems PC9-H5223; label: biotin
Method: as §1, §2

[4] = target: T1, PCSK9; test: inhibition; inhibition of 20 nM PCSK9 binding to immobilized LDLR by SPR; HEPES, NaCl, 0.1 mM CaCl2, pH 7.5; conditions: tags: ACROBiosystems PC9-H5223
Method: Binding of PCSK9 on surface-immobilized LDLR in the presence of various competing agents was measured on a Series S SA chip using 10 mM HEPES, 150 mM NaCl, 0.1 mM CaCl₂, 0.005% Tween-20, pH 7.5 as bulk buffer at a flow rate of 10 μL/min. The injected solutions contained 20 nM PCSK9 and various competing agents ranging from 2 to 200 nM.
Binding of PCSK9 on surface-immobilized LDLR in the presence of various competing agents was measured on a Series S SA chip. The bulk running buffer was 10 mM HEPES, 150 mM NaCl, 0.1 mM CaCl₂, 0.005% Tween-20, pH 7.5. […] The surface was regenerated using two consecutive one-minute injections of 50 mM HCl. Blank cycles were run similarly except that running buffer containing 1 mg/ml non-specific binding reducer without protein was injected. Response levels at the end of the injection periods from double-blank-subtracted sensograms were recorded.

[5] = target: PCSK9 (biotinylated Avi-tagged) (UniProt Q8NBP7;Q8NBP7 Q8NBP7:31-152,Q8NBP7:153-692); test: SPR; immobilized PCSK9, 0.9x HBS-EP, 25 C; conditions: tags: biotinylated Avi-tag, ACROBiosystems PC9-H82E7
PCSK9 (biotinylated Avi-tagged), sequence (Q8NBP7 31-152, chain 1 of 2): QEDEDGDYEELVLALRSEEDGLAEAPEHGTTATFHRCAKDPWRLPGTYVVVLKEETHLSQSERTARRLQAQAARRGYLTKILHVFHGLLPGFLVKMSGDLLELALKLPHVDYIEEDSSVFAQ
PCSK9 (biotinylated Avi-tagged), sequence (Q8NBP7 153-692, chain 2 of 2): as the sequence (Q8NBP7 153-692, one chain of several) above
Excerpt: Biotinylated PCSK9 in 0.9×HBS buffer was immobilized onto the active flow cell to ˜1000 RU. […] Kinetic parameters were fitted to double-blank-subtracted sensograms under a 1:1 binding model using BIAEvaluation software.

[6] = target: T1, PCSK9; test: pulldown; unfunctionalized DNA, no evident binding; conditions: tags: ACROBiosystems PC9-H5223
[7] = target: T1, PCSK9; test: SPR; 0.9x HBS-EP, salmon sperm DNA 1 mg/ml, 25 C; conditions: tags: ACROBiosystems PC9-H5223; label: 5' dual biotin-iSp18
Method: as §1, §2

[8] = target: T1, PCSK9; test: SPR; two-state reaction kinetic model; conditions: tags: ACROBiosystems PC9-H5223; label: 3' iSp18-dual biotin
Method: as §1, §2

T1 sequence (Q8NBP7 31-152, chain 1 of 2): as the sequence (Q8NBP7 31-152, chain 1 of 2) above
T1 sequence (Q8NBP7 153-692, chain 2 of 2): as the sequence (Q8NBP7 153-692, one chain of several) above

B1: PCSK9-Evo5 (ssDNA)
DNA: TGCTACCGTTGTTTACCCTGCCACCTTCTGGAGTCCAGATGTAGGTAG
modifications: HFNAP, C5 side chain on 5' pyrimidine of codons TGC primary alcohol, TAC imidazole, CGT cyclopentyl, TGT phenol, TTA allylamine, CCC cyclopropyl, TGC primary alcohol, CAC isopentyl, CTT cyclopentyl, CTG cyclopentyl
**Q.** What does the source list for B1?
**A.** Kd [1]: 3 nM; binding result [2]: no binding

B2: PCSK9-Evo5 3 side chains (ssDNA)
DNA: TGCTACCGTTGTTTACCCTGCCACCTTCTGGAGTCCAGATGTAGGTAG
modifications: only three side chains: phenol at position 9, isopentyl at position 21, cyclopentyl at position 24 (so in the source); rest unfunctionalized DNA [phenol at 9, isopentyl at 21, cyclopentyl at 24 (positions as printed); all other side chains removed; base sequence unchanged]
**Q.** Which Kd [3] does the source give for B2 here?
**A.** 3.7 nM

**Q.** What does the source list for TGCTACCGTTGTTTACCCTGCCACCTTCTGGAGTCCAGATGTAGGTAG (ssDNA, side chains as PCSK9-Evo5, 3' idT) [PCSK9-Evo5-syn]?
**A.** IC50 [4]: ~9 nM; Kd [5]: 6.8 nM

B3: PCSK9A1-DNA (ssDNA)
DNA: CGAATCAGATTGGACCAGCCACTATATTCTCTCTCCTACCGTTTGCCTTTGCATCACCTTCTGGAGTCCAGATGTAGGTAG
**Q.** Does B3 bind [6]?
**A.** no binding

B4: PCSK9A2-DNA (ssDNA)
DNA: CGAATCAGATTGGACCAGCAACAATGATTCTTCTACCGTTTTTGCCCTCACCTTCTGCGCTGAGAGTCCAGATGTAGGTAG
**Q.** Does B4 bind [6]?
**A.** no binding

B5: PCSK9A3-DNA (ssDNA)
DNA: CGAATCAGATTGGACCAGTCTCTACAACCTCTTTCATGTCTTTAGCACTACTTATCCTGATCAGAGTCCAGATGTAGGTAG
**Q.** Does B5 bind [6]?
**A.** no binding

B6: PCSK9A4-DNA (ssDNA)
DNA: CGAATCAGATTGGACCAGCCCCAATGCTTTTCGTTTCTATCACGTCTTTAGCGGTACCTATTCGAGTCCAGATGTAGGTAG
**Q.** Does B6 bind [6]?
**A.** no binding

B7: PCSK9A6-DNA (ssDNA)
DNA: CGAATCAGATTGGACCAGTTTCAACCTCTTCTGCCTTCTCCACGGCTCCTTCTGCGTTGTTCCGAGTCCAGATGTAGGTAG
**Q.** Does B7 bind [6]?
**A.** no binding

B8: PCSK9A7-DNA (ssDNA)
DNA: CGAATCAGATTGGACCAGTCTTCCCTATTCCTCTACCGTTTGTTCTCTTACTTTCACCTTCTGGAGTCCAGATGTAGGTAG
**Q.** Does B8 bind [6]?
**A.** no binding

**Q.** For TTCTACCGTTTTTGCCCCCGGCACCTTCTGGAGTCCAGATGTAGGTAG (ssDNA, HFNAP side chains as PCSK9-A5) [PCSK9-A5Trunc], which Kd [3] is on record?
**A.** 68 nM

B9: PCSK9-A5 (ssDNA)
DNA: CGAATCAGATTGGACCAGCCACGTTACTGATTCTTCTACCGTTTTTGCCCCCGGCACCTTCTGGAGTCCAGATGTAGGTAG
modifications: HFNAP, C5 side chain on the 5' pyrimidine of each of the 15 codons in the variable region (19-63): CCA cyclopropyl, CGT/CTT/CTG cyclopentyl, TAC imidazole, TGA/TGC primary alcohol, TTC allylamine, TTT phenol, CCC cyclopropyl, CGG/CAC isopentyl
**Q.** For B9, which Kd [7] is on record?
**A.** 98 nM

B10: PCSK9-Evo5 CAC delta side chain (ssDNA)
DNA: TGCTACCGTTGTTTACCCTGCCACCTTCTGGAGTCCAGATGTAGGTAG
modifications: as PCSK9-Evo5 except CAC unmodified [side chains as PCSK9-Evo5 except CAC codon (nt 22-24) unmodified (isopentyl removed); base sequence unchanged]
**Q.** For B10, which Kd [8] is on record?
**A.** ~420 nM
